Experimental data reported in IntAct's records for PubMed 31515488.

B1: Protein-lysine methyltransferase METTL21C (Homo sapiens), Q5VZV1 (parent)
chain: MDVCLSSAQQPGRRGEGLSSPGGWLEAEKKGAPQKDSTGGVLEESNKIEPSLHSLQKFVPTDYASYTQEHYRFAGKEIVIQESIESYGAVVWPGAMALCQYLEEHAEELNFQDAKILEIGAGPGLVSIVASILGAQVTATDLPDVLGNLQYNLLKNTLQCTAHLPEVKELVWGEDLDKNFPKSAFYYDYVLASDVVYHHYFLDKLLTTMVYLSQPGTVLLWANKFRFSTDYEFLDKFKQVFDTTLLAEYPESSVKLFKGILKWD
B2: Elongin-A2 (Homo sapiens), Q8IYF1 (parent)
chain: MAAGSTTLHAVEKLQVRLATKTEPKKLEKYLQKLSALPMTADILAETGIRKTVKRLRKHQHVGDFARDLAARWKKLVLVDRNTRPGPQDPEESASRQRFGEALQDQEKAWGFPENATAPRSPSHSPEHRRTARRTPPGQQRPHPRSHSREPRAERKCPRIAPADSGRYRASPTRTAPLRMPEGPEPAAPGKQPGRGHTHAAQGGPLLCPGCQGQPQGKAVVSHSKGHKSSRQEKRPLCAQGDWHSPTLIREKSCGACLREETPRMPSWASARDRQPSDFKTDKEGGQAGSGQRVPALEEAPDSHQKRPQHSHSNKKRPSLDGRDPGNGTHGLSPEEKEQLSNDRETQEGKPPTAHLDRTSVSSLSEVEEVDMAEEFEQPTLSCEKYLTYDQLRKQKKKTGKSATTALGDKQRKANESKGTRESWDSAKKLPPVQESQSERLQAAGADSAGPKTVPSHVFSELWDLSEAWMQANYDPLSDSDSMTSQAKPEALSSPKFREEAAFPGRRVNAKMPVYSGSRPACQLQVPTLRQQCAQVLRNNPDALSDVGEVPYWVLEPVLEGWRPDQLYRRKKDNHALVRETDELRRNHCFQDFKEEKPQENKTWREQYLRLPDAPEQRLRVMTTNIRSARGNNPNGREAKMICFKSVAKTPYDTSRRQEKSAGDADPENGEIKPASKPAGSSHTPSSQSSSGGGRDSSSSILRWLPEKRANPCLSSSNEHAAPAAKTRKQAAKKVAPLMAKAIRDYKRRFSRR
partner: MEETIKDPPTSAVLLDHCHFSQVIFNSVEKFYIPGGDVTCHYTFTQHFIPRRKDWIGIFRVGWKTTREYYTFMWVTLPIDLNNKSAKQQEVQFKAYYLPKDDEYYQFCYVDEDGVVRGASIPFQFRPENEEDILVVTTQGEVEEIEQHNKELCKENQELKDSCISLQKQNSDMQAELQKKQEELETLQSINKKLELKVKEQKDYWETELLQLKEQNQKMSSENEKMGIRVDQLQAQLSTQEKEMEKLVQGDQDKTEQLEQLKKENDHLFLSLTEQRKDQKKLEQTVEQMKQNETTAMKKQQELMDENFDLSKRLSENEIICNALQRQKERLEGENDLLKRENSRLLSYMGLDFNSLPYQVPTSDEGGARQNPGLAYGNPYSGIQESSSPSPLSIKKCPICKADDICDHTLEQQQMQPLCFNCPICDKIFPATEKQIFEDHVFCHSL
B3: Cell growth regulator with RING finger domain protein 1 (Homo sapiens), Q99675 (parent)
chain: MAAVFLVTLYEYSPLFYIAVVFTCFIVTTGLVLGWFGWDVPVILRNSEETQFSTRVFKKQMRQVKNPFGLEITNPSSASITTGITLTTDCLEDSLLTCYWGCSVQKLYEALQKHVYCFRISTPQALEDALYSEYLYQEQYFIKKDSKEEIYCQLPRDTKIEDFGTVPRSRYPLVALLTLADEDDREIYDIISMVSVIHIPDRTYKLSCRILYQYLLLAQGQFHDLKQLFMSANNNFTPSNNSSSEEKNTDRSLLEKVGLSESEVEPSEENSKDCVVCQNGTVNWVLLPCRHTCLCDGCVKYFQQCPMCRQFVQESFALCSQKEQDKDKPKTL
partner: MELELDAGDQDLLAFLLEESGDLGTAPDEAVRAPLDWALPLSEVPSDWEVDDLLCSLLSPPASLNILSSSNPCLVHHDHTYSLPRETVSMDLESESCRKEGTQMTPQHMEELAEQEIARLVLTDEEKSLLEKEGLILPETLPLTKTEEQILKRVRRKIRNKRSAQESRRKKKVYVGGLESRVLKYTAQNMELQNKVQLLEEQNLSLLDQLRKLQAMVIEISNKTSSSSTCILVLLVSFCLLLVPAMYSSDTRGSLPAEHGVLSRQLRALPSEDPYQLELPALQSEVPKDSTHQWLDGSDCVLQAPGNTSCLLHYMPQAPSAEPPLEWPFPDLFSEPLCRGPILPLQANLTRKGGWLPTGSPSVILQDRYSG
B4: Germ cell-less protein-like 1 (Homo sapiens), Q96IK5 (parent)
chain: MGSLSSRVLRQPRPALAQQAQGARAGGSARRPDTGDDAAGHGFCYCAGSHKRKRSSGSFCYCHPDSETDEDEEEGDEQQRLLNTPRRKKLKSTSKYIYQTLFLNGENSDIKICALGEEWSLHKIYLCQSGYFSSMFSGSWKESSMNIIELEIPDQNIDVEALQVAFGSLYRDDVLIKPSRVVAILAAACLLQLDGLIQQCGETMKETVNVKTVCGYYTSAGTYGLDSVKKKCLEWLLNNLMTHQNVELFKELSINVMKQLIGSSNLFVMQVEMDIYTALKKWMFLQLVPSWNGSLKQLLTETDVWFSKQRKDFEGMAFLETEQGKPFVSVFRHLRLQYIISDLASARIIEQDAVVPSEWLSSVYKQQWFAMLRAEQDSEVGPQEINKEELEGNSMRCGRKLAKDGEYCWRWTGFNFGFDLLVTYTNRYIIFKRNTLNQPCSGSVSLQPRRSIAFRLRLASFDSSGKLICSRTTGYQILTLEKDQEQVVMNLDSRLLIFPLYICCNFLYISPEKKN
partner: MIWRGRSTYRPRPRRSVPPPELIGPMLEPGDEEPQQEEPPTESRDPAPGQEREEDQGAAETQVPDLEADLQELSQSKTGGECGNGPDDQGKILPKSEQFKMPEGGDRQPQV

Variants of: B1
Details: with eloc_human ELOC

effect of a mutation on the interaction	Variant
with no effect	G15R

Variants of: B2
Details: with caco2_human CALCOCO2, Q13137

Variant	effect of a mutation on the interaction
G505R	disrupting interaction strength
T6S	with no effect
R179P	with no effect

More lines, now with the values ahead:

effect of a mutation on the interaction	Variant
with no effect	D302H
with no effect	R498Q
with no effect	C254F

Variants of: B3
Details: with creb3_human CREB3, O43889

effect of a mutation on the interaction	Variant
disrupting interaction strength	R185W

Variants of: B4
Details: with xage3_human XAGE3, Q8WTP9

effect of a mutation on the interaction	Variant
with no effect	Y61S
with no effect	K281Q
with no effect	I147V
